Assay [1] concerns the target importin α7 (UniProt O60684). The assay is described as follows: fluorescence polarisation. (In fluorescence polarisation assays a small probe gives low polarisation when free and higher when bound to something large.)
Assay [2] concerns the target importin α7 (UniProt O60684). Description: fluorescence polarisation. The source holds these as a separate data set.

Consider 1 substance from publication PMC6497050.

Read-outs that look alike come from different tables or passages of the source.

By Kd is commonly meant the free concentration of one partner at which half of the binding sites on the other are occupied at equilibrium, for simple one-to-one binding. Consider “wild type LANS (Light Activated Nuclear Shuttle) (from UniProt O49003 404-546) (designed binder)”, for which the Kd is 30.4 µM in the assay with importin α7 [1] and 1.3 µM in the assay with importin α7 [2].
